Results from patent publication US20250368729A1.
Values belong to the substance of their own block, whether it stands above or below them.

Tests used:
[1] = biological target: KEN hATTR amyloid extract (human) (UniProt P02766); assay: EuLISA, substrate coated on plate
[2] = biological target: SNO hereditary (h) ATTR amyloid extract (human) (UniProt P02766); assay: pulldown, labelled antibody
[3] = biological target: KEN hATTR amyloid extract (human) (UniProt P02766); assay: pulldown, labelled antibody
[4] = biological target: synthetic amyloid-like fibrils of recombinant amyloidogenic λ6 variable domain protein (rVλ6Wil); assay: EuLISA, substrate coated on plate
[5] = biological target: SHI ALλ liver amyloid extract; assay: EuLISA, substrate coated on plate
[6] = biological target: Per125 wtATTR amyloid extract (human) (UniProt P02766); assay: EuLISA, substrate coated on plate
[7] = biological target: TAL ALκ liver amyloid extract; assay: EuLISA, substrate coated on plate
hIAPP fibril = hIAPP fibril (UniProt P10997); assay: pulldown of 125I-labelled antibody with the substrate pellet
[8] = biological target: Aβ(1-40) amyloid-like fibrils (UniProt P05067); assay: as above
Aβ(1-40) amyloid-like fibrils, sequence (P05067 672-711 limits assumed): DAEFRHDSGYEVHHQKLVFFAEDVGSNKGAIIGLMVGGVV

hIAPP fibril, sequence (P10997 34-70 limits assumed): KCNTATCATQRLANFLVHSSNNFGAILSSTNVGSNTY

EC50 [1]: 3.56 nM
LogEC50 [1]: 8.45 -log(M)
Max (maximal level of binding) [1]: 19.9
percent bound [2]: 12%
percent bound [3]: 15%
Substance: murine Ig-peptide fusion Igp5 (murine 11-1F4 with peptide p5 fused to the N-terminus of the light chain) (antibody)

EC50 [4]: 1280 nM
LogEC50 [4]: 5.89 -log(M)
Max (maximal level of binding) [4]: 39.3
LogEC50 [5]: 7.88 -log(M)
Max (maximal level of binding) [5]: 2.5
LogEC50 [6]: 7.92 -log(M)
Max (maximal level of binding) [6]: 8.38
LogEC50 [1]: 9.06 -log(M)
Max (maximal level of binding) [1]: -0.8
LogEC50 [7]: 3 -log(M)
Max (maximal level of binding) [7]: 2220
Substance: hIgG1 control (antibody)

LogEC50 [1]: -1.36
Max (maximal level of binding) [1]: 19700
Substance: chimeric (c) 11-1F4 (antibody)

LogEC50 [1]: 2.39
Max (maximal level of binding) [1]: 294000
bound to substrate (pulldown) (hIAPP fibril): 5.1%
bound to substrate (pulldown) [8]: 4.6%
Substance: murine antibody m11-1F4
